The values below come from article doi:10.1101/2021.02.07.430097, “Molecular and structural mechanisms of ZZ domain-mediated cargo recognition by autophagy receptor Nbr1” (bioRxiv, 2021).

The labels stand for the following.
B1: Nbr1(53-180) of the Ams1-Nbr1 fusion protein (domain or fragment, S. pombe, UniProt Q9P792 53-180, looked up)
chain: PTLRSSSVACNTCLKIIRNDSFHCTKCFDFDVCRDCYAKQAFLHPCPKPHFVLVRSSIPSVASLTCSVNSMSVSPQSNFMYAICDHCEQPIHNVRYKCSVCDDYDICESCLTDNSHSNTHAFVRITKA
notes: S. pombe Nbr1 residues 53-180 (ZZ1 and ZZ2); residues 59-108 are in the model; written as a molecule of its own for the pair; also called Nbr1-ZZ1; ZZ1; source: S. pombe, Pnmt1 promoter, purified (GFP-Trap beads, released by 3C protease); not shown: MBP, C-terminal, kept; GFP, C-terminal, cleaved
B2: Ams1 (full length) of the Ams1-Nbr1 fusion protein (enzyme, S. pombe, UniProt Q9UT61 2-1077, looked up)
chain: TLFPVLNNTPVGKQVDSIYESRLDQFLSEGQYRDFNLPSVYDHARIDNPSGDVNNDLSKGFVDLKVYRVPDLSRPSFNEVVGHKKFDETASKGDTFGPSWATFWFEVHIRLPKSWAKYEQVIFQWNCDNEGLVYSQDGVPLQAFSGSERTDFILPDSWKTTEDTFYIEMACNGMFGTGAGSQIAPPDPNRYFTLTKADLVAPNLPAMALAYDFLLMQQCVKQLPSNCWQKYKARQICNDIMNTFHPNDLSTINECRNLAKAFLGNDIDSEAVFEKNNDKANVFAIGHCHIDTAWLWPFAETRRKIVRSWATQMNIMDRYPEYQFVCSQALQYLWLKEDHPDVFEKLKEYVNQNKFIPIGGSWVEHDTNIPNGESLIRQFLLGQHFFEKEFGVRCRTFWLPDTFGYSSQIPQICRLCGMDRFLTQKLSWNNINSFPTSTFNWVALDGSQVICHMPPANTYTADTNVNDVLHSIDQHKNLVNDQAGLLVFGIGDGGGGPTPEMLEKLRRCKGIANTVGYLPNVKLGNTVDEFFDGILKRTNAGQTLPSWNGELYFEFHRGTYTTQAELKKLMRKVEIALHDAEYVSTLASIFSKDYSYPKESLQDLWRDTLLCQFHDVLPGSCIEMVYKDAIPIMSKVLKNTEALLWQAIEQLGFKKASSSDNKEQLCLLNTLPWNVRGVITETEENKLVYFESCDGKGILTAAHTSLKHPAAAYQKDDNFILVNDHLRVTIAPNGLILSLFDLHKEREILDLKSGKNHAGANQYVLFEDTPLSWQAWDTEVFSLEKYEVLDKGKVSIKESGPLRASVVVDIPISELSHMKATISLEGYNDCSEFTGVNFTCEVDWHESCKFLKVEFPVDIHSEFASYETQFGITKRPTHYNTSWDVAKFEVCHQKFADYSDFTYGVSVLNDCKYGFSTHGNLMRLSLLRSPKQPDAHADMGKHTIRYAVYPHSKPLDSSTVRAAHKFNSNFRLLTRASDTANLDIFDAFQLVGEPNVILSHIKMAEKGKSIILRVYESLGGKSRARLVIKSLTVASVTKCNGLEEDLEELCTLKSNDYYEVPIELRAFEIATFKVNL
notes: S. pombe alpha-mannosidase Ams1 (SPAC513.05), full length; the first methionine is removed in vivo, T2 is the most N-terminal residue in the density map; residues 2-1077 are in the model; written as a molecule of its own for the pair; also called Ams1_1; Ams1_3; source: S. pombe, Pnmt1 promoter, purified (GFP-Trap beads, released by 3C protease)

In series [1] the target is B2. Put plainly: cryo-EM structure; Ams1-linker-Nbr1(53-180)-MBP fusion protein purified from S. pombe; 2.4 Å, D2 symmetry. Particulars: both partners purified.
Series [2] deals with the molecule itself. Described as above.

As usually defined, the stoichiometry N is the number of molecules, sites or subunits per partner or assembly. B1: in series [1], the “stoichiometry N” value is 4 Nbr1-ZZ1 molecules per Ams1 tetramer.
On to B2, for which, in series [2], the “stoichiometry N” value stood at 4.
